Data on five variants can be found in IntAct's records for PubMed 31515488.

B1: Alpha-taxilin (Homo sapiens), P40222 (parent)
chain: MKNQDKKNGAAKQSNPKSSPGQPEAGPEGAQERPSQAAPAVEAEGPGSSQAPRKPEGAQARTAQSGALRDVSEELSRQLEDILSTYCVDNNQGGPGEDGAQGEPAEPEDAEKSRTYVARNGEPEPTPVVNGEKEPSKGDPNTEEIRQSDEVGDRDHRRPQEKKKAKGLGKEITLLMQTLNTLSTPEEKLAALCKKYAELLEEHRNSQKQMKLLQKKQSQLVQEKDHLRGEHSKAVLARSKLESLCRELQRHNRSLKEEGVQRAREEEEKRKEVTSHFQVTLNDIQLQMEQHNERNSKLRQENMELAERLKKLIEQYELREEHIDKVFKHKDLQQQLVDAKLQQAQEMLKEAEERHQREKDFLLKEAVESQRMCELMKQQETHLKQQLALYTEKFEEFQNTLSKSSEVFTTFKQEMEKMTKKIKKLEKETTMYRSRWESSNKALLEMAEEKTVRDKELEGLQVKIQRLEKLCRALQTERNDLNKRVQDLSAGGQGSLTDSGPERRPEGPGAQAPSSPRVTEAPCYPGAPSTEASGQTGPQEPTSARA
B2: "N-acyl-aromatic-L-amino acid amidohydrolase (carboxylate-forming)" (Homo sapiens), Q96HD9 (parent)
chain: MCSLPVPREPLRRVAVTGGTHGNEMSGVYLARHWLHAPAELQRASFSAVPVLANPAATSGCRRYVDHDLNRTFTSSFLNSRPTPDDPYEVTRARELNQLLGPKASGQAFDFVLDLHNTTANMGTCLIAKSSHEVFAMHLCRHLQLQYPELSCQVFLYQRSGEESYNLDSVAKNGLGLELGPQPQGVLRADIFSRMRTLVATVLDFIELFNQGTAFPAFEMEAYRPVGVVDFPRTEAGHLAGTVHPQLQDRDFQPLQPGAPIFQMFSGEDLLYEGESTVYPVFINEAAYYEKGVAFVQTEKFTFTVPAMPALTPAPSPAS
partner: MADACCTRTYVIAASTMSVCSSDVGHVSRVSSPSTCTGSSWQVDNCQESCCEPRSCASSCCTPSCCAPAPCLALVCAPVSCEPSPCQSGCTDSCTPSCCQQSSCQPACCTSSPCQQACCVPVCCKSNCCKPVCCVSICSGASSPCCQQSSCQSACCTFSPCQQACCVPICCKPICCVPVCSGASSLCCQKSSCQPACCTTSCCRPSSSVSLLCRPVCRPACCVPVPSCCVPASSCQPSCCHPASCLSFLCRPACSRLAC
B3: Isoform Long of Autophagy protein 5 (Homo sapiens), Q9H1Y0-1 (parent)
chain: MTDDKDVLRDVWFGRIPTCFTLYQDEITEREAEPYYLLLPRVSYLTLVTDKVKKHFQKVMRQEDISEIWFEYEGTPLKWHYPIGLLFDLLASSSALPWNITVHFKSFPEKDLLHCPSKDAIEAHFMSCMKEADALKHKSQVINEMQKKDHKQLWMGLQNDRFDQFWAINRKLMEYPAEENGFRYIPFRIYQTTTERPFIQKLFRPVAADGQLHTLGDLLKEVCPSAIDPEDGEKKNQVMIHGIEPMLETPLQWLSEHLSYPDNFLHISIIPQPTD
partner: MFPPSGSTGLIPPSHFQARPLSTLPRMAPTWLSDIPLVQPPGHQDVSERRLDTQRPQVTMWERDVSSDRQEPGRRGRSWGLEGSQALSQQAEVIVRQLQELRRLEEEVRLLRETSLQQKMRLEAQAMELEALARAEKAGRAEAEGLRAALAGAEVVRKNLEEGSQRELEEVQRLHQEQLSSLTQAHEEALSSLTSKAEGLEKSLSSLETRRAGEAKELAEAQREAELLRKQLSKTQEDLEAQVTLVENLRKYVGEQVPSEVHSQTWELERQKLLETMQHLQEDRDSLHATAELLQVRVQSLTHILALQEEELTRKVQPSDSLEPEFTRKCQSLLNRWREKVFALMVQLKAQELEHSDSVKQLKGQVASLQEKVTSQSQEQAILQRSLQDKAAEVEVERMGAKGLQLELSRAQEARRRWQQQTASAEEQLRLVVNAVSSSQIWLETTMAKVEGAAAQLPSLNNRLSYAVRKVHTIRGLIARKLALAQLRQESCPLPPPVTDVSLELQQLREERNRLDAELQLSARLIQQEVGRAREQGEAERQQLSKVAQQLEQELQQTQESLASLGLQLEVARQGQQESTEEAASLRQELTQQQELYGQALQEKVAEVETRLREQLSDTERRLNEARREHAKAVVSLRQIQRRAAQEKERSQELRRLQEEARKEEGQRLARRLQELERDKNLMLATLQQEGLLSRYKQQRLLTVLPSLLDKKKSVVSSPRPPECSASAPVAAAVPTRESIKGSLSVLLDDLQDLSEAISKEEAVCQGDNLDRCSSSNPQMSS
B4: E3 ubiquitin-protein ligase TRIM32 (Homo sapiens), Q13049 (parent)
chain: MAAAAASHLNLDALREVLECPICMESFTEEQLRPKLLHCGHTICRQCLEKLLASSINGVRCPFCSKITRITSLTQLTDNLTVLKIIDTAGLSEAVGLLMCRSCGRRLPRQFCRSCGLVLCEPCREADHQPPGHCTLPVKEAAEERRRDFGEKLTRLRELMGELQRRKAALEGVSKDLQARYKAVLQEYGHEERRVQDELARSRKFFTGSLAEVEKSNSQVVEEQSYLLNIAEVQAVSRCDYFLAKIKQADVALLEETADEEEPELTASLPRELTLQDVELLKVGHVGPLQIGQAVKKPRTVNVEDSWAMEATASAASTSVTFREMDMSPEEVVASPRASPAKQRGPEAASNIQQCLFLKKMGAKGSTPGMFNLPVSLYVTSQGEVLVADRGNYRIQVFTRKGFLKEIRRSPSGIDSFVLSFLGADLPNLTPLSVAMNCQGLIGVTDSYDNSLKVYTLDGHCVACHRSQLSKPWGITALPSGQFVVTDVEGGKLWCFTVDRGSGVVKYSCLCSAVRPKFVTCDAEGTVYFTQGLGLNLENRQNEHHLEGGFSIGSVGPDGQLGRQISHFFSENEDFRCIAGMCVDARGDLIVADSSRKEILHFPKGGGYSVLIREGLTCPVGIALTPKGQLLVLDCWDHCIKIYSYHLRRYSTP

The variants in the first test derive from B1. Conditions: with cc136_human CCDC136, Q96JN2.
cc136_human CCDC136, Q96JN2, sequence (Q96JN2 whole entry): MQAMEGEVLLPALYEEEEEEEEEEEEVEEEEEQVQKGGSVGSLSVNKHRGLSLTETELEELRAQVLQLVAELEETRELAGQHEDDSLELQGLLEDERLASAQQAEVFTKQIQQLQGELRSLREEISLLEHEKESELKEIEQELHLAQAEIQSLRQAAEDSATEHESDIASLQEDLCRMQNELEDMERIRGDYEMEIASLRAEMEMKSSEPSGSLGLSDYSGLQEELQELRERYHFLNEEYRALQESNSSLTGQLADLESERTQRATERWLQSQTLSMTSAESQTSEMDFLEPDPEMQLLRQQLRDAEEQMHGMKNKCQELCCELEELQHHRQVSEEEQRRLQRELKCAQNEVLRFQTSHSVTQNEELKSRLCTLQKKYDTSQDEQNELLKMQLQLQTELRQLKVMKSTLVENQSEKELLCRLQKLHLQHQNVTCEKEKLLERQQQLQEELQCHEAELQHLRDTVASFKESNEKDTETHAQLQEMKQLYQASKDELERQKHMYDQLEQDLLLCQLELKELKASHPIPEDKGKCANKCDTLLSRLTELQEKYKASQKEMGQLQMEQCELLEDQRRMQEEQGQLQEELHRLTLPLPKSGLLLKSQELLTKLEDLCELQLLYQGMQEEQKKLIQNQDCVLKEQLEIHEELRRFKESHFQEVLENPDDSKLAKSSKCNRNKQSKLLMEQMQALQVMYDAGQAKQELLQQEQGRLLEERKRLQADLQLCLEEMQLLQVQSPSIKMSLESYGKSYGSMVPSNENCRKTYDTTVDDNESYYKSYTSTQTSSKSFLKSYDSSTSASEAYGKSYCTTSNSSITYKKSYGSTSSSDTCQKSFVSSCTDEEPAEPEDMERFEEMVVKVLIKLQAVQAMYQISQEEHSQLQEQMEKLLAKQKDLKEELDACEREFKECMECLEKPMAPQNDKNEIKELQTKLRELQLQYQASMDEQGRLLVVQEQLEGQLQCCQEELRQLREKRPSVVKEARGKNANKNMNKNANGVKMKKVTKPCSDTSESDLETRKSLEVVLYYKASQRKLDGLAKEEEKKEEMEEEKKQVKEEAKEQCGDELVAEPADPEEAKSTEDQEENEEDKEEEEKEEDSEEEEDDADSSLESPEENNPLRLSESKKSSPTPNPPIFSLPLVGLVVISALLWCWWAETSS
As to S514R, the “effect of a mutation on the interaction” value is given as “with no effect”.

On to P541S, for which the “effect of a mutation on the interaction” value is “with no effect”.

In a further test the parent is B1. Conditions: with tfp11_human TFIP11, Q9UBB9.
tfp11_human TFIP11, Q9UBB9, sequence (Q9UBB9 whole entry): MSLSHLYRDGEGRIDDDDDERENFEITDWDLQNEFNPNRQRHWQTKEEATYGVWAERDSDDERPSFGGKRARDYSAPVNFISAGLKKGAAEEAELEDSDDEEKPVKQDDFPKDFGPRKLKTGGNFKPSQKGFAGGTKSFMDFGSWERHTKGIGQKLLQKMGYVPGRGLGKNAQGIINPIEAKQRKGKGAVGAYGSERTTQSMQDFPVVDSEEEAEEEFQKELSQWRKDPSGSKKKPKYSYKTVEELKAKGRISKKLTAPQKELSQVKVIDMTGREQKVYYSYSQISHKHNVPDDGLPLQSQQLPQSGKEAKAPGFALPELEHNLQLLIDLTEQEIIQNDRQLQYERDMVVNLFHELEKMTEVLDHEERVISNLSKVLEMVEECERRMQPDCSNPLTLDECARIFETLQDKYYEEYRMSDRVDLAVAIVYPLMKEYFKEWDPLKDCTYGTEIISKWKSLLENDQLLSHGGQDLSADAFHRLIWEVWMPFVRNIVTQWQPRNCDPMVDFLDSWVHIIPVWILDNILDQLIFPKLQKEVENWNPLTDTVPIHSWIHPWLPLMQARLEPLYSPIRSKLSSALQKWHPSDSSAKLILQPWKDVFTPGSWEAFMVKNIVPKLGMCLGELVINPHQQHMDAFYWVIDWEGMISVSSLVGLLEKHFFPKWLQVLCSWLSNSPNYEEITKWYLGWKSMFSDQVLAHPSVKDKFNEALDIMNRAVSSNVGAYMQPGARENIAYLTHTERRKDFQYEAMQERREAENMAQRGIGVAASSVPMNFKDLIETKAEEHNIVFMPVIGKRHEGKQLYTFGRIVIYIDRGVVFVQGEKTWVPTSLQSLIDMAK
Consider S514R, for which the “effect of a mutation on the interaction” value is “with no effect”.

P541S: the “effect of a mutation on the interaction” value is “with no effect”.

In a further test the parent is B1. Conditions: with ndc80_human NDC80, O14777.
ndc80_human NDC80, O14777, sequence (O14777 whole entry): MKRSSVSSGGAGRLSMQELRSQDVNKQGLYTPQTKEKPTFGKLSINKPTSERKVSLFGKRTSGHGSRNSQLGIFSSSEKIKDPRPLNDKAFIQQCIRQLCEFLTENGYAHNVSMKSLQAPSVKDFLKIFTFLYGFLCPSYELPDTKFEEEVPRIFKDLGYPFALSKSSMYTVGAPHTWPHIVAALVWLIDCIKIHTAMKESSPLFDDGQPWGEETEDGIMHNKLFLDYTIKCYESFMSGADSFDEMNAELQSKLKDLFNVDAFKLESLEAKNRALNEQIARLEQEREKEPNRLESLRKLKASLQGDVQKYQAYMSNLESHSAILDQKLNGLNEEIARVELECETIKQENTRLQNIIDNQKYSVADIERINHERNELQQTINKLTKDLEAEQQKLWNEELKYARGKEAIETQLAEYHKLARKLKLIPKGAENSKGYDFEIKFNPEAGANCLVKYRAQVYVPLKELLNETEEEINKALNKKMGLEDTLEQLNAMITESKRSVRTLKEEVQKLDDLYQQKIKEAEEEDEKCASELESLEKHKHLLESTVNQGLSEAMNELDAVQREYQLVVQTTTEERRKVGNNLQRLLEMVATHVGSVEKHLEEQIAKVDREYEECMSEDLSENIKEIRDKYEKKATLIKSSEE
In the case of S514R, the “effect of a mutation on the interaction” value is recorded as “with no effect”.

With P541S, the “effect of a mutation on the interaction” value was “with no effect”.

The variants in the next test derive from B2. Conditions: with kr108_human KRTAP10-8, P60410.
For the variant R8Q, the “effect of a mutation on the interaction” value is listed as “with no effect”.

The variants in a further test derive from B3. Conditions: with cchcr_human CCHCR1, Q8TD31.
In the case of K58M, the “effect of a mutation on the interaction” value was “with no effect”.

In a further test the parent is B4. Conditions: with abi2_human ABI2, Q9NYB9.
abi2_human ABI2, Q9NYB9, sequence (Q9NYB9 whole entry): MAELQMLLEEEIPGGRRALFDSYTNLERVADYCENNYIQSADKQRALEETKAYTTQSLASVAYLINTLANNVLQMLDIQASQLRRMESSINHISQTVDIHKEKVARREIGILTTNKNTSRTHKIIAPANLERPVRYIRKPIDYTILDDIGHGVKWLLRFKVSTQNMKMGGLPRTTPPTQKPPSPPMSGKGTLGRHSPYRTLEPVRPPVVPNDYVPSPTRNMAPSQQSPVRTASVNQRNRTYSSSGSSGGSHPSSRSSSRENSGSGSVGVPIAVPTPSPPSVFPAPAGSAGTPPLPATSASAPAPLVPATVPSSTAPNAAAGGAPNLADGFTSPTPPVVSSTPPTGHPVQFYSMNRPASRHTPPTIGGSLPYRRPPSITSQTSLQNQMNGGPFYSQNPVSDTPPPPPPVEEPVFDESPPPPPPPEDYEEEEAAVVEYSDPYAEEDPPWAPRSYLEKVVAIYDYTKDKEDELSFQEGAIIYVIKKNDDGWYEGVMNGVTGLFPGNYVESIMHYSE
For the variant E547A, the “effect of a mutation on the interaction” value is recorded as “disrupting interaction strength”.

Variants of B4 are the subject of another test. Conditions: with pde9a_human PDE9A.
E547A: the “effect of a mutation on the interaction” value is on record as “disrupting interaction strength”.

In a further test the parent is B4. Conditions: with sdcb1_human SDCBP.
On to E547A, for which the “effect of a mutation on the interaction” value is reported as “disrupting interaction strength”.
